Test results published in the supplement of paper PMC9732359.
± gives the uncertainty stated by the source.

Experiment: protein stability index of a GFP-peptide fusion (yeast GPS) (PSI 1-4); higher = more stable; sorted into four equal gates, so the index is relative within each strain
Method in brief: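 Plasmids isolated from each sorting gate were PCR-amplified and Illumina-sequenced, and barcodes assigned the reads to strains. The gates, four of equal size, were set by GFP/Cherry fluorescence ratio on mid-log cultures in leucine-free medium. These cultures were yeast carrying a pooled library of tiled 17-residue yeast protein peptides fused downstream of GFP on a plasmid that also expresses Cherry. The protein stability index is the sum of every gate's read frequency times its gate number.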

NGLGTSHINTNVGDNNS [ARP7]
protein stability index (doa10∆): 3.13 ± 0.12
protein stability index (pdr5∆): 2.77 ± 0.099
protein stability index (san1∆): 2.74 ± 0.082
protein stability index (ubr1∆): 3.28 ± 0.11

LQDDEDHKFPIRENKVT [BRN1]
protein stability index (doa10∆): 2.7 ± 0.1
protein stability index (pdr5∆): 3.07 ± 0.083
protein stability index (san1∆): 2.75 ± 0.074
protein stability index (ubr1∆): 2.38 ± 0.095

LQLETPAEVGRAIRSEK [BRR2]
protein stability index (doa10∆): 2.08 ± 0.11
protein stability index (pdr5∆): 2.92 ± 0.063
protein stability index (san1∆): 1.66 ± 0.11

AVKDQQKYTKEMIDSHI [SNF2]
protein stability index (doa10∆): 2.8 ± 0.062
protein stability index (pdr5∆): 2.68 ± 0.051
protein stability index (san1∆): 2.38 ± 0.068
protein stability index (ubr1∆): 2.95 ± 0.043

RNAALRAKAEAAEFRYK [SCL1]
protein stability index (doa10∆): 2.9 ± 0.068
protein stability index (pdr5∆): 3.28 ± 0.072
protein stability index (san1∆): 2.93 ± 0.056
protein stability index (ubr1∆): 3 ± 0.057

VRHGRAGATTSRFIPLK [RPS15]
protein stability index (doa10∆): 2.62 ± 0.076
protein stability index (pdr5∆): 2.56 ± 0.062
protein stability index (san1∆): 2.89 ± 0.042
protein stability index (ubr1∆): 3.06 ± 0.064

VLQPLLPRELPKLLDAL [SNU114]
protein stability index (doa10∆): 2.15 ± 0.072
protein stability index (pdr5∆): 2.2 ± 0.11
protein stability index (san1∆): 2.73 ± 0.11
protein stability index (ubr1∆): 2.6 ± 0.096

LNVKCTRNPDAPKGSTD [RPC40]
protein stability index (doa10∆): 3.19 ± 0.095
protein stability index (pdr5∆): 3.1 ± 0.11
protein stability index (san1∆): 3.04 ± 0.064
protein stability index (ubr1∆): 3.06 ± 0.12

FGKLAFPTRLGQGYRKV [YJL039C/NUP192]
protein stability index (doa10∆): 2.98 ± 0.18
protein stability index (pdr5∆): 1.7 ± 0.1
protein stability index (san1∆): 1.54 ± 0.18
protein stability index (ubr1∆): 1.62 ± 0.077

KINTRGAEDPKVLINDQ [SWI1]
protein stability index (doa10∆): 3.02 ± 0.2
protein stability index (pdr5∆): 3.34 ± 0.13
protein stability index (san1∆): 3.26 ± 0.14
protein stability index (ubr1∆): 3.11 ± 0.054

EFLYSKAGREELERVNV [QCR8]
protein stability index (san1∆): 3.28 ± 0.11
protein stability index (ubr1∆): 3.27 ± 0.17

STQPSFAWSKPSTGSNL [YGR119C/NUP57]
protein stability index (doa10∆): 2.98 ± 0.054
protein stability index (pdr5∆): 3.04 ± 0.055
protein stability index (san1∆): 3.01 ± 0.048
protein stability index (ubr1∆): 2.98 ± 0.038

EEAKEESDDDMGFGLFD [RPP1A]
protein stability index (doa10∆): 3.09 ± 0.053
protein stability index (pdr5∆): 3.15 ± 0.061
protein stability index (san1∆): 3.22 ± 0.028
protein stability index (ubr1∆): 3.26 ± 0.045

SKQDASPKPYAVKYGLN [RPL8A]
protein stability index (doa10∆): 3.3 ± 0.12
protein stability index (pdr5∆): 3.2 ± 0.096
protein stability index (san1∆): 3.23 ± 0.095
protein stability index (ubr1∆): 3.14 ± 0.095

SLIENKKAKLVLIANDV [RPL8B]
protein stability index (doa10∆): 2.32 ± 0.13
protein stability index (pdr5∆): 3.23 ± 0.17
protein stability index (san1∆): 2.99 ± 0.12
protein stability index (ubr1∆): 2.35 ± 0.14

LKEDDSSLYEASLNALK [RPN1]
protein stability index (doa10∆): 3.44 ± 0.24
protein stability index (pdr5∆): 3.18 ± 0.14
protein stability index (san1∆): 3.5 ± 0.12
protein stability index (ubr1∆): 2.95 ± 0.093

PSNSTTTLHGPGFQLPN [SRB8]
protein stability index (doa10∆): 3 ± 0.1
protein stability index (pdr5∆): 2.85 ± 0.096
protein stability index (san1∆): 2.71 ± 0.066
protein stability index (ubr1∆): 2.91 ± 0.058

KLKLLRMERIKDHLLLE [RPT2]
protein stability index (doa10∆): 2.27 ± 0.079
protein stability index (pdr5∆): 2.05 ± 0.064
protein stability index (san1∆): 2.12 ± 0.092
protein stability index (ubr1∆): 1.86 ± 0.054

SKALNSILESSMFLRID [RGR1]
protein stability index (doa10∆): 2.42 ± 0.16
protein stability index (pdr5∆): 2.67 ± 0.11
protein stability index (san1∆): 2.08 ± 0.11
protein stability index (ubr1∆): 2.83 ± 0.082

KEKKELQMRLKESEISH [YIL149C/MLP2]
protein stability index (doa10∆): 2.6 ± 0.22
protein stability index (pdr5∆): 2.94 ± 0.17
protein stability index (san1∆): 3.04 ± 0.17
protein stability index (ubr1∆): 3.04 ± 0.15

IGDTIADGPTMREITET [RPO21]
protein stability index (doa10∆): 3.48 ± 0.11
protein stability index (pdr5∆): 3.52 ± 0.092
protein stability index (san1∆): 3.52 ± 0.045
protein stability index (ubr1∆): 3.39 ± 0.059

ETQVEVEKNEIGKMYDE [NNF1]
protein stability index (doa10∆): 3.05 ± 0.19
protein stability index (pdr5∆): 3.21 ± 0.11
protein stability index (san1∆): 2.98 ± 0.17
protein stability index (ubr1∆): 3.37 ± 0.13

GVEEEEELKDSEINEIL [SNF2]
protein stability index (doa10∆): 3.14 ± 0.16
protein stability index (pdr5∆): 3.33 ± 0.11
protein stability index (san1∆): 2.31 ± 0.12
protein stability index (ubr1∆): 2.72 ± 0.075

VLGIKVKIMRDPAKSRT [RPS3]
protein stability index (doa10∆): 2.67 ± 0.067
protein stability index (pdr5∆): 2.78 ± 0.054
protein stability index (san1∆): 2.98 ± 0.049
protein stability index (ubr1∆): 3.16 ± 0.037

TDGADENVQIGEDFMEV [SRB4]
protein stability index (doa10∆): 2.66 ± 0.12
protein stability index (pdr5∆): 3.35 ± 0.17
protein stability index (ubr1∆): 3.1 ± 0.19

YINSDSVNPAMLPGSSN [RPO31]
protein stability index (doa10∆): 2.6 ± 0.1
protein stability index (pdr5∆): 2.74 ± 0.099
protein stability index (san1∆): 2.73 ± 0.15
protein stability index (ubr1∆): 2.83 ± 0.074

FYDIRSLLERHIPRLIP [YJL039C/NUP192]
protein stability index (doa10∆): 2.79 ± 0.049
protein stability index (pdr5∆): 2.46 ± 0.046
protein stability index (san1∆): 2.2 ± 0.048
protein stability index (ubr1∆): 2.77 ± 0.055

NISNAKLANFFSKKGNE [YAR002W/NUP60]
protein stability index (doa10∆): 2.83 ± 0.092
protein stability index (pdr5∆): 3.05 ± 0.062
protein stability index (san1∆): 2.88 ± 0.07
protein stability index (ubr1∆): 2.33 ± 0.079

DIRKFLDGIYVSHKGFI [RPL9A]
protein stability index (doa10∆): 1.39 ± 0.1
protein stability index (pdr5∆): 2.08 ± 0.077
protein stability index (san1∆): 1.77 ± 0.16
protein stability index (ubr1∆): 3.23 ± 0.1

NLRLKILTIIEEYKKSL [GRR1]
protein stability index (doa10∆): 1.65 ± 0.068
protein stability index (pdr5∆): 1.6 ± 0.055
protein stability index (san1∆): 1.86 ± 0.083
protein stability index (ubr1∆): 1.61 ± 0.07

NYLNDMHDSNLQNNSDS [SKP1]
protein stability index (doa10∆): 2.48 ± 0.12
protein stability index (pdr5∆): 2.59 ± 0.063
protein stability index (san1∆): 2.3 ± 0.08
protein stability index (ubr1∆): 2.7 ± 0.054

FTIVSLVQLKKFSDLKF [YML103C/NUP188]
protein stability index (doa10∆): 2.37 ± 0.17
protein stability index (pdr5∆): 2.5 ± 0.097
protein stability index (san1∆): 2.7 ± 0.1
protein stability index (ubr1∆): 2.06 ± 0.073

RAASIRARVKAFPKDDR [RPL3]
protein stability index (doa10∆): 1.22 ± 0.035
protein stability index (pdr5∆): 1.46 ± 0.051
protein stability index (san1∆): 1.27 ± 0.078
protein stability index (ubr1∆): 1.5 ± 0.039

GLSILFLTGQFASNKKI [YML103C/NUP188]
protein stability index (doa10∆): 2.36 ± 0.068
protein stability index (pdr5∆): 2.37 ± 0.062
protein stability index (san1∆): 2.68 ± 0.079
protein stability index (ubr1∆): 2.35 ± 0.052

ETASFIPTKESLTRDFE [YIL149C/MLP2]
protein stability index (doa10∆): 2.83 ± 0.068
protein stability index (pdr5∆): 3.09 ± 0.075
protein stability index (san1∆): 2.41 ± 0.077
protein stability index (ubr1∆): 2.72 ± 0.046

SLSIEENIPVALCKNRK [POP1]
protein stability index (doa10∆): 2.76 ± 0.07
protein stability index (pdr5∆): 2.98 ± 0.1
protein stability index (san1∆): 2.75 ± 0.18
protein stability index (ubr1∆): 2.95 ± 0.1

DIIWLQRDLGLYVVGLF [RRP6]
protein stability index (doa10∆): 2.27 ± 0.062
protein stability index (pdr5∆): 2.22 ± 0.099
protein stability index (san1∆): 1.4 ± 0.1
protein stability index (ubr1∆): 2.29 ± 0.12

DIKVLKRQLIKERNQKF [YIL149C/MLP2]
protein stability index (doa10∆): 2.7 ± 0.084
protein stability index (pdr5∆): 2.62 ± 0.084
protein stability index (san1∆): 2.5 ± 0.091
protein stability index (ubr1∆): 2.41 ± 0.039

TEENKANTNSVTSMEAA [YIL149C/MLP2]
protein stability index (doa10∆): 3.46 ± 0.1
protein stability index (pdr5∆): 3.5 ± 0.089
protein stability index (san1∆): 3.12 ± 0.08
protein stability index (ubr1∆): 3.13 ± 0.058

NAVLGLGDMAVCFNNLV [YCS4]
protein stability index (doa10∆): 2.71 ± 0.097
protein stability index (pdr5∆): 3.32 ± 0.11
protein stability index (san1∆): 2.61 ± 0.098
protein stability index (ubr1∆): 2.68 ± 0.093

SEAFPSLQSCSVAVHFQ [SMC4]
protein stability index (doa10∆): 1.77 ± 0.1
protein stability index (pdr5∆): 2.09 ± 0.082
protein stability index (san1∆): 2.39 ± 0.095
protein stability index (ubr1∆): 1.79 ± 0.056

LVPQLGHVGSVQISNIP [PRP8]
protein stability index (doa10∆): 2.32 ± 0.1
protein stability index (pdr5∆): 2.3 ± 0.065
protein stability index (san1∆): 1.91 ± 0.12
protein stability index (ubr1∆): 2.72 ± 0.089

REIDALKKQLHVSHEAM [YIL149C/MLP2]
protein stability index (doa10∆): 2.88 ± 0.05
protein stability index (pdr5∆): 2.97 ± 0.047
protein stability index (san1∆): 2.91 ± 0.048
protein stability index (ubr1∆): 2.82 ± 0.049

NGTVNNNSALSNVNSDI [RPT3]
protein stability index (doa10∆): 2.91 ± 0.1
protein stability index (pdr5∆): 2.77 ± 0.067
protein stability index (san1∆): 1.81 ± 0.087
protein stability index (ubr1∆): 2.15 ± 0.051

TAFATEFFVQVLTHESL [DLS1]
protein stability index (doa10∆): 2.47 ± 0.11
protein stability index (pdr5∆): 2.71 ± 0.11
protein stability index (san1∆): 2.73 ± 0.088
protein stability index (ubr1∆): 2.02 ± 0.046

QLVTREAQIKDWVENEL [FAS2]
protein stability index (doa10∆): 3.44 ± 0.1
protein stability index (pdr5∆): 3.19 ± 0.1
protein stability index (san1∆): 3.39 ± 0.065
protein stability index (ubr1∆): 3.11 ± 0.064

NKASLAQYEVLANYLTS [QCR2]
protein stability index (doa10∆): 2.42 ± 0.063
protein stability index (pdr5∆): 2.41 ± 0.051
protein stability index (san1∆): 2.5 ± 0.075
protein stability index (ubr1∆): 2.64 ± 0.081

ESSYTEVTKLLKNEGID [SMC4]
protein stability index (doa10∆): 3.1 ± 0.082
protein stability index (pdr5∆): 3.17 ± 0.15
protein stability index (ubr1∆): 3.49 ± 0.098

DFIQNVGRLWDQTFPIN [ECM29]
protein stability index (doa10∆): 3.13 ± 0.062
protein stability index (pdr5∆): 3.35 ± 0.057
protein stability index (san1∆): 3.31 ± 0.043
protein stability index (ubr1∆): 3.31 ± 0.045
